Results reported in patent publication US20070026510A1, “Process for biochemical production of glyoxylic acid” (Kaneka Corporation, priority 2003, published 2007).

Columns and labels:
[1] = Conversion of glyoxal into glyoxylic acid by purified enzymes, HPLC; format: biochemical; details: 0.2 U/ml enzyme, 50 mM glyoxal, 5,000 U/ml catalase, 100 mM Tris-HCl, 30° C., 3 hours
Experimental: Each of the enzymes derived from Streptomyces sp. KNK269, Microbacterium sp. KNK011, Pseudomonas sp. KNK058, and Cellulosimicrobium cellulans IFO 15516, which were obtained in Examples 4, 5, 6, and 7, respectively, was reacted using glyoxal as a substrate. That is, 1 ml of 100 mM Tris-HCl buffer comprising 0.2 U/ml enzyme derived from each of the above strains, 50 mM glyoxal, and 5,000 U/ml catalase, were placed in a test tube. It was then subjected to a shake reaction at 30° C. for 3 hours. After completion of the reaction, the reaction solution was analyzed by high performance liquid chromatography.

[2] = Oxidase activity to glyoxylic acid (H2O2 detection with 4-AA/TOOS/POD, absorbance 555 nm); format: biochemical; details: substrate glyoxylic acid, relative to glyoxal = 100; enzymes of the invention
Experimental: (§1) The cell-free extract of each of KNK235 and KNK058 obtained by the method described in Example 1 was charged to a Resource Q column (6 ml) that had previously been equilibrated with a 0.05 M phosphate buffer (pH 7), and the enzyme was eluted with a linear concentration gradient of sodium chloride from 0 to 0.5 M, so as to collect active fractions. Roughly purified enzyme solutions of these KNK235 and KNK058 and purified enzymes obtained from Streptomyces sp. KNK269, Microbacterium sp. KNK011, and Cellulosimicrobium cellulans IFO 15516, obtained in Examples 4, 5, and 7, respectively, were measured in terms of their oxidase activity to glyoxal and to glyoxylic acid. Measurement of the enzyme activity was carried out by the following method. That is, 1.0 ml of a reaction solution comprising 10 mM glyoxal or glyoxylic acid, 0.67 mM 4-AA, 1.09 mM TOOS, 2 U/ml POD, and a roughly purified enzyme from KNK235 or KNK058, or a purified enzyme obtained from NKN269, KNK011, or IFO 15516 in Example 4, 5, or 7, was reacted at 30° C. in a 100 mM phosphate buffer (pH 7). Thereafter, an increase in the absorbance at a wavelength of 555 nm was measured.

[3] = Oxidase activity to glyoxal (H2O2 detection with 4-AA/TOOS/POD, absorbance 555 nm); format: biochemical; details: for Activity to glyoxal/activity to glyoxylic acid: 10 mM substrate, 30° C., 100 mM phosphate buffer pH 7; for Relative activity (%): substrate glyoxal (reference = 100), enzymes of the invention
Experimental: When the reaction is catalyzed by oxidase, not only glyoxylic acid but also hydrogen peroxide is produced. Oxidase activity of interest can easily be detected by detecting such hydrogen peroxide.
Specifically, 0.1 ml of cell suspension or enzyme solution is added to 0.9 ml of a 100 mM phosphate buffer (pH 7) having the composition indicated below, and an increase in the absorbance at a wavelength of 555 nm is measured at 30° C. In the present invention, enzyme activity for generating 1 μmol H2O2 per minute is defined as 1 unit.
as §1

[4] = Heat stability of purified enzyme (remaining activity); format: physicochemical; details: 0.05 M phosphate buffer pH 7.2, 20 minutes, treatment at 70° C. (FIG. 3)
Experimental: as §1, with “measured. […]” for “measured.”
The present enzyme was treated in a 0.05 M phosphate buffer (pH 7.2) at each temperature from 30° C. to 70° C. for 20 minutes. Thereafter, the remaining activity of the present enzyme was measured using glyoxal as a substrate.

glyoxylic acid generated [1] [mM]	Activity to glyoxal/activity to glyoxylic acid [3]	Molecule	Relative activity (%) [2] [%]	Relative activity (%) [3] [%]	remaining activity after heat treatment [4] [%]
26	100	IFO15516-derived enzyme: aldehyde oxidase purified from culture supernatant of Cellulosimicrobium cellulans IFO 15516; SEQ ID NOS: 11 and 12	1	100	–
25	183	KNK011-derived enzyme: aldehyde oxidase purified from Microbacterium sp. KNK011; SEQ ID NOS: 7 and 8	0.5	100	–
7.6	1,710	KNK269-derived enzyme: aldehyde oxidase purified from Streptomyces sp. KNK269; three subunits, SEQ ID NOS: 1 to 3 (protein, Streptomyces sp. KNK269; amino acid sequence of subunit gamma of aldehyde oxidase; amino acid sequence of subunit beta of aldehyde oxidase; amino acid sequence of subunit alpha of aldehyde oxidase) chain 1: GADLEPEPVVDEHSTVTLNVNGDPTTLTVDHRTTVLETLRESFGLTGAKKGCDHGQCGACTVLVDGRRVNSCLLLAVAQDGATITTVEGLADGEDLHPVQRAFVERDALQCGFCTPGQICSAVGMLREAADGHPSHVTGPDTAAGPDAATGPGGPVALDADEIRERMSGNIFRCGAYHRIVEAIEDVIE chain 2: MKPFGYVRPASPDEAVRLCAEGSGARFLGGGTNLVDLMKLGVEAPRVLIDVAGLPLDRVTRTADGGLAIGATVRNSDLAAHPDVTDRYPVLSQALLAGASGQLRNSATTGGNLLQRTRCRYFQDVSKPCNKRLPGSGCPARDGTHRDLAILGHSPECVATNPSDMAVALAALDATVVLLGPEGERAVPLTEFHRLPGENPDQDTAIRTGELITEVVLPPPAPGAATRYRKARDRASFAFALVSVAATLRVDAGRVEHATLAFGGVAHRPWRARRAEAELRGAPATPAVFQHALIAELAEARPLRDNVFKVDLARRLALDVLGELTERQPTRTG chain 3: MTTRAPQFPGAPVVRREARDKVTGTARYAADRTPAGCLYAWTVPAAVAAGRVTAVRAVDALAVPGVHTVLTHDNAPELREPDDPILAVLQDDRVPHHGWPIALVIAESPEAARTGAGELHVEYARDEHDVTLTEDHPGLYTPEEANGGEPAVRVRGDVERALAASPVQVDATYRMVALHNHPMEPHAATAVRADGHLTVHDSSQGSTKVRESLAQAFGLAADRITVVSEHVGGGFGSKGTTRPQGVLAAMAAQHTGRPVKLVFPRAQLAEVVGHRAPTIQRVRLGADLDGVLTAVSHEVVTQTSTVKEFVEQAAVPARVMYASPHSRTAHRVTALDVPSPSWMRAPGEASGMYALESAMDVLDSALGLDPVELRLRNEPETEPDSGRPFSSRGLAACLRDGAARFGWQDRDPRPAARQEGRWLIGTGVASATYPVLLSRSTASAHATRDGDLSIAVNATDIGTGARTVLAQIAADVLGVAPEALRVDIGSTDLPAAPLAGGSSGTASWGWSVHKAATALAARLAEHRGPLPADGITTTADTGQETGEESPYARHAFGAHFAETAVDAVTGEVRVRRLLGVYAAGRILNERTARSQFTGGMVMGIGMALTEGCGIDPGFGDFTAKDLASYHVPVCADTADIQAHWIEEDDRHLNPMGSKGIGEIGIVGTAAAIGNAVRHATGARLRELPLTTDT	0.1	100	≥ 90
